B1: HDV Ribozyme (parent)
chain: GGCCGGCAUGGUCCCAGCCUCCUCGCUGGCGCCGGCUGGGCAACAUUCCGAGGGGACCGUCCCCUCGGUAAUGGCGAAUGGGACCCA

Variants of B1 are the subject of this data set. As to the kind of experiment: self-cleavage, relative activity (ratio to wild type); higher = more cleavage; co-transcriptional.
On to G50U C85G, for which the self-cleavage was found to be 0.872.

For the variant A51G A70C, the self-cleavage was determined as 0.974.

As to A51G A70U, the self-cleavage came to 1.22.

As to G50C U72G, the self-cleavage was determined as 0.415.

Take G50U G73U: the self-cleavage is 0.402.

With G50A G68U, the self-cleavage was found to be 0.767.

Consider G50C A71C, for which the self-cleavage worked out at 0.252.

On to G50C A71U, for which the self-cleavage is 0.554.

With A51C U60G, the self-cleavage was 0.95.

In the case of A51C U79G, the self-cleavage was found to be 0.415.

Consider A51C U79A, for which the self-cleavage was found to be 0.959.

In the case of G50C C62U, the self-cleavage stood at 0.939.

On to G50C C62A, for which the self-cleavage came out at 0.475.

G50C C62G: the self-cleavage amounted to 0.

Turning to A51C U65G, the self-cleavage was 0.937.

A51C U65A: the self-cleavage is 1.04.

Turning to C49G G76C, the self-cleavage stood at 0.982.

With G50U C66A, the self-cleavage turned out to be 0.901.

As for G50U C66U, the self-cleavage was found to be 1.09.

In the case of A51G A71U, the self-cleavage was 0.629.

Take A51G A71C: the self-cleavage was found to be 0.458.

Regarding A51G C58A, the self-cleavage is 0.98.

As to A51G C58U, the self-cleavage was determined as 0.95.

G50A A70U: the self-cleavage was determined as 1.05.

In the case of G50A A70C, the self-cleavage is 0.763.

With G50A A70G, the self-cleavage came to 0.763.

Regarding C49U G52C, the self-cleavage worked out at 0.866.

For the variant C49U G52A, the self-cleavage amounted to 0.96.

In the case of G50A U69A, the self-cleavage amounted to 1.01.

With A51G A77G, the self-cleavage stood at 1.02.

Consider C49U G80A, for which the self-cleavage stood at 0.4.

C49U A87C: the self-cleavage stood at 1.05.

On to G50A A56U, for which the self-cleavage is 1.06.

As for G50A G74U, the self-cleavage turned out to be 0.483.

Take G50A G55A: the self-cleavage was determined as 0.783.

Consider C49U C64U, for which the self-cleavage was determined as 1.05.

Turning to C49U G59U, the self-cleavage is 0.858.

Take C49U G59C: the self-cleavage was 0.799.

As for C49U G59A, the self-cleavage stood at 0.935.

For G50A A87U, the self-cleavage came to 1.08.

On to C49U C84U, for which the self-cleavage worked out at 0.676.

As for G50U U69G, the self-cleavage amounted to 0.95.

As for G50U U69A, the self-cleavage was 0.872.

For A51C C63U, the self-cleavage was determined as 1.05.

Regarding C49U G76U, the self-cleavage was determined as 1.18.

Regarding C49U G76A, the self-cleavage came to 1.08.

A51C C57U: the self-cleavage came out at 0.969.

Turning to G50C C75A, the self-cleavage turned out to be 0.242.

In the case of G50C C75U, the self-cleavage turned out to be 0.162.

Turning to G50C C75G, the self-cleavage was determined as 0.

C49U C85G: the self-cleavage was found to be 0.876.

Take C49U C85U: the self-cleavage is 0.799.

Turning to A51G C84G, the self-cleavage stood at 0.332.

With A51G C84U, the self-cleavage was 0.975.

For G50U C63A, the self-cleavage is 0.57.

For the variant G50U G67C, the self-cleavage stood at 0.617.

Consider G50U G67A, for which the self-cleavage was 0.959.

As for G50C U60C, the self-cleavage was determined as 1.13.

As to G50U C62G, the self-cleavage amounted to 0.344.

With G50U C62U, the self-cleavage came out at 0.95.

Turning to G50U C62A, the self-cleavage stood at 0.602.

Regarding G50A U60G, the self-cleavage came out at 0.514.

On to G50A U60C, for which the self-cleavage was found to be 0.945.

For the variant G50C A77C, the self-cleavage worked out at 0.302.

Take G50A G82U: the self-cleavage came to 0.364.

As for G50A G82A, the self-cleavage is 0.614.

With C49U A51U, the self-cleavage is 0.867.

As to C49U A51C, the self-cleavage was determined as 0.712.

Turning to G50U C57A, the self-cleavage turned out to be 0.911.

G50U C57G: the self-cleavage is 0.986.

Turning to G50U C57U, the self-cleavage was 1.17.

With G50A C58G, the self-cleavage stood at 0.909.

On to G50A C58A, for which the self-cleavage amounted to 1.12.

For G50A C58U, the self-cleavage was 0.919.

Take C49U G68C: the self-cleavage turned out to be 0.784.

On to C49U G68A, for which the self-cleavage was 0.987.

With C49U C66A, the self-cleavage stood at 0.984.

G50A C66A: the self-cleavage is 1.18.

For A51C A77C, the self-cleavage worked out at 0.266.

As to G50A A83G, the self-cleavage was 0.99.

Take G50A A83U: the self-cleavage was 0.486.

Take G50C U79A: the self-cleavage worked out at 0.739.

In the case of G50C U79G, the self-cleavage was 0.723.

For the variant G50C U79C, the self-cleavage turned out to be 0.554.

Turning to C49U U79G, the self-cleavage came to 0.688.

For C49U U79C, the self-cleavage amounted to 0.47.

Take A51C G68U: the self-cleavage amounted to 0.782.

As for A51C G76A, the self-cleavage amounted to 1.08.

As for G50A U79A, the self-cleavage turned out to be 0.88.

With G50A U79G, the self-cleavage is 0.629.

Take G50A U79C: the self-cleavage was 0.486.

As to G50U A71G, the self-cleavage was found to be 0.78.

Take G50U A71C: the self-cleavage came out at 0.435.

With A51C U69A, the self-cleavage came out at 1.13.

Consider A51C U69C, for which the self-cleavage came to 0.931.

For the variant A51C U69G, the self-cleavage was found to be 1.15.

On to A51G G52C, for which the self-cleavage is 0.789.

In the case of A51G C64A, the self-cleavage came to 0.47.

In the case of G50A G80A, the self-cleavage worked out at 0.415.

With G50A G80C, the self-cleavage came to 0.284.

A51C G74U: the self-cleavage was 0.383.

As to A51C G74A, the self-cleavage is 0.479.

A51C G74C: the self-cleavage came to 0.196.

In the case of C49G G80C, the self-cleavage is 0.178.

As for C49G G80U, the self-cleavage worked out at 0.123.

For the variant C49G G80A, the self-cleavage worked out at 0.465.

On to G50C G67A, for which the self-cleavage came to 0.565.

With G50C G67U, the self-cleavage is 0.795.

Regarding G50C G67C, the self-cleavage was 0.399.

As for A51C G52C, the self-cleavage stood at 0.332.

Regarding A51C G52A, the self-cleavage turned out to be 1.04.

As to A51C G52U, the self-cleavage stood at 0.601.

Turning to A51C A56C, the self-cleavage is 0.703.

Consider C49U C57G, for which the self-cleavage was found to be 1.19.

Consider C49U C57U, for which the self-cleavage was 1.18.

Turning to A51C G67A, the self-cleavage stood at 0.77.

A51C G67U: the self-cleavage amounted to 0.939.

Take G50C A51G: the self-cleavage came out at 1.07.

Regarding G50C A51U, the self-cleavage was 0.755.

Regarding C49G G81C, the self-cleavage worked out at 0.196.

In the case of C49G U69A, the self-cleavage amounted to 0.798.

Turning to C49G U69G, the self-cleavage stood at 0.831.

For the variant C49G U69C, the self-cleavage amounted to 0.898.

For G50C C64U, the self-cleavage stood at 0.728.

As for G50C C64G, the self-cleavage was 0.383.

Regarding A51G G53U, the self-cleavage stood at 0.795.

With A51G G53C, the self-cleavage was 0.665.

Regarding G50U G59C, the self-cleavage was found to be 1.14.

For the variant G50U G59A, the self-cleavage worked out at 0.852.

As to G50U U72C, the self-cleavage came out at 0.487.

Regarding G50U U72G, the self-cleavage was 0.415.

Take G50U U72A: the self-cleavage turned out to be 0.554.

Consider G50U G54A, for which the self-cleavage worked out at 0.85.

For G50U G54C, the self-cleavage stood at 0.768.

Turning to G50C G74C, the self-cleavage was found to be 0.196.

Turning to G50C C63A, the self-cleavage amounted to 0.305.

As to G50C C63U, the self-cleavage was found to be 0.997.

On to G50C C63G, for which the self-cleavage is 0.135.

As for G50A A51U, the self-cleavage was 0.763.

Turning to G50A A51C, the self-cleavage was 0.991.

For G50U G81U, the self-cleavage is 0.341.

With G50U G81C, the self-cleavage was 0.479.

In the case of G50U G81A, the self-cleavage was 0.609.

Turning to A51G A56G, the self-cleavage is 1.08.

With C49U C63U, the self-cleavage was found to be 0.958.

Regarding G50C C58A, the self-cleavage is 1.

Turning to G50A G54A, the self-cleavage was determined as 0.726.

Take C49G G55U: the self-cleavage worked out at 0.844.

On to A51C C66U, for which the self-cleavage came out at 0.974.

For the variant A51C A87U, the self-cleavage stood at 0.881.

Regarding G50C G59C, the self-cleavage amounted to 1.16.

As to G50C G59U, the self-cleavage was determined as 0.932.

For the variant C49U G55U, the self-cleavage was found to be 0.909.

A51C G54U: the self-cleavage was 0.659.

For the variant A51C G54A, the self-cleavage worked out at 0.716.

Consider G50C U69C, for which the self-cleavage was 1.07.

Take G50C G73U: the self-cleavage amounted to 0.246.

G50C G73C: the self-cleavage came out at 0.601.

Turning to G50U C64A, the self-cleavage came out at 0.468.

For the variant G50U C64U, the self-cleavage worked out at 0.901.

On to A51C G80A, for which the self-cleavage was found to be 0.345.

In the case of A51G A78G, the self-cleavage was 0.674.

Consider A51G A78C, for which the self-cleavage amounted to 0.318.

With C49U A56C, the self-cleavage came to 0.773.

For C49U A56G, the self-cleavage turned out to be 1.04.

On to C49U A77G, for which the self-cleavage is 0.95.

Consider C49U A77U, for which the self-cleavage amounted to 0.297.
